From article PMC3154745
Values belong to the binder of their own block, whether it stands above or below them.

Key:
[1] = target: T1, Full length HP1a, pET11a construct (AUC) (D. melanogaster), P05205; test: AUC; conditions: remark: other sources report otherwise
T1 chain: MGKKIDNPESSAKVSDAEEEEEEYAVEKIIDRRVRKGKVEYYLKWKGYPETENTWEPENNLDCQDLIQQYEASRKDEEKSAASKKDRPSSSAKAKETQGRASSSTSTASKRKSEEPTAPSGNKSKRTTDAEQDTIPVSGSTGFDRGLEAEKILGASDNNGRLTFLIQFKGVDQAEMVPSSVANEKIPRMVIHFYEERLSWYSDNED

[2] = target: PIWI peptide with HP2 pentamer, N-terminal fluorescein (D. melanogaster); test: fluorescence polarisation
[3] = target: HP2 peptide with PIWI pentamer, N-terminal fluorescein (D. melanogaster); test: fluorescence polarisation

- Kd [1]: 1400 nM
B1: Full length HP1a, pET11a construct (AUC), P05205 1-206 (natural protein)
chain: T1 chain

- Kd [2]: 21300 nM
- Kd [3]: 990 nM
B2: HP1a-CSD (residues 131-206), wild type (domain or fragment)
chain: EQDTIPVSGSTGFDRGLEAEKILGASDNNGRLTFLIQFKGVDQAEMVPSSVANEKIPRMVIHFYEERLSWYSDNED
